Measurements reported in the supplement of paper PMC7877785.
± gives the uncertainty stated by the source.

Test: self-splicing fitness, log relative to wild type (ln ratio); higher = more splicing; Tetrahymena group I intron in knt gene, E. coli kanamycin selection, DiMSum; sequences stand for … in CUCUCU…GGAGGGAAAAGUUAUCAGGCAUGCACCUGGUAGCUAGUCUUUAAACCAAUAGAUUGCAUCGGUUUAAAAGGCAAGACCGUCAAAUUGCGGGAAAGGGGUCAACAGCCGUUCAGUACCAAGUCUCAGGGGAAACUUUGAGAUGGCCUUGCAAAGGGUAUGGUAAUAAGCUGACGGACAUGGUCCUAACCACGCAGCCAAGUCCUAAGUCAACAGAUCUUCUGUUGAUAUGGAUGCAGUUCACAGACUAAAUGUCGGUCGGGGAAGAUGUAUUCUUCUCAUAAGAUAUAGUCGGACCUCUCCUUAAUGGGAGCUAGCGGAUGAAGUGAUGCAACACUGGAGCCGCUGGGAACUAAUUUGUAUGCGAAAGUAUAUUGAUUAGUUUUGGAGUACUCGUGGUCG
In short: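 Fitness was computed with DiMSum as the error-weighted combination of replicate fold changes, kanamycin versus none, each normalised to wild type. The library randomised all eight intron nucleotides of the P1ex region, with the intron placed in the knt kanamycin-resistance gene on pET-22b(+) in E. coli BL21(DE3). Six replicate transformations were grown overnight at 37°C or 30°C on LB agar with or without 25 μg/mL kanamycin, plus 100 μg/mL carbenicillin, 50 μM IPTG and 0.2% rhamnose. Pooled colonies were amplicon-sequenced on an Illumina HiSeq 2500.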

Sequence	self-splicing fitness (ln) (30 °C)	self-splicing fitness (ln) (37 °C)
GGGUAGCAAUAUUACGUUAA	-1.72 ± 0.16	-0.668 ± 0.13
GGGUAGCAAUAUUACGUUAG		-1.78 ± 0.43
GGUAAGCAAUAUUACGACCC	-1.6 ± 0.26	-1.75 ± 0.43
GGUAAGCAAUAUUACGAGAU	-2.94 ± 0.25	-1.2 ± 0.16
GGUAAGCAAUAUUACGAGUG	-2 ± 0.16	-3.17 ± 0.13
GGUAAGCAAUAUUACGAUAA	-1.43 ± 0.092	-0.994 ± 0.13
GGUAAGCAAUAUUACGCAGC	-0.901 ± 0.24	-1.19 ± 0.23
GGUAAGCAAUAUUACGCCGG	-3.09 ± 0.47	-1.93 ± 0.47
GGUAAGCAAUAUUACGCGAU	-2.17 ± 0.3	
GGUAAGCAAUAUUACGCUUU	-1.88 ± 0.24	-2.02 ± 0.33
GGUAAGCAAUAUUACGGAUC	0.0183 ± 0.15	0.125 ± 0.21
GGUAAGCAAUAUUACGGCCA	-1.91 ± 0.39	
GGUAAGCAAUAUUACGGGCU	-1.76 ± 0.13	-0.874 ± 0.12
GGUAAGCAAUAUUACGGUAC	-1.32 ± 0.08	-0.815 ± 0.13
GGUAAGCAAUAUUACGGUGA	-1.45 ± 0.12	-0.756 ± 0.13
GGUAAGCAAUAUUACGGUGG	-2.82 ± 0.12	-3.18 ± 0.24
GGUAAGCAAUAUUACGUCAU	-0.725 ± 0.14	0.713 ± 0.2
GGUAAGCAAUAUUACGUCCA	-0.363 ± 0.14	-0.817 ± 0.16
GGUAAGCAAUAUUACGUCCG	-0.859 ± 0.11	-0.41 ± 0.15
GGUAAGCAAUAUUACGUGUU	-1.4 ± 0.075	-0.901 ± 0.083
GGUAAGCAAUAUUACGUUAU	-2.4 ± 0.17	-2.3 ± 0.24
GGUAAGCAAUAUUACGUUCU	-1.44 ± 0.12	-0.359 ± 0.12
GGUAAGCAAUAUUACGUUGG	-2.59 ± 0.38	-1.99 ± 0.39
GGUAAGCAAUAUUACGUUGU	-3.1 ± 0.26	-1.61 ± 0.36
GGUCAGCAAUAUUACGACGG	-0.435 ± 0.14	-0.175 ± 0.16

Sequence	self-splicing fitness (ln) (30 °C)	self-splicing fitness (ln) (37 °C)
GGUCAGCAAUAUUACGAGAG	-3.37 ± 0.42	-1.16 ± 0.25
GGUCAGCAAUAUUACGCACG	0.0799 ± 0.1	0.287 ± 0.13
GGUCAGCAAUAUUACGCAGU	-1.33 ± 0.11	-0.639 ± 0.13
GGUCAGCAAUAUUACGCAUA	-0.703 ± 0.088	-0.214 ± 0.11
GGUCAGCAAUAUUACGCCGG	-2.68 ± 0.27	-2.79 ± 0.3
GGUCAGCAAUAUUACGCCUC	-0.643 ± 0.12	0.0345 ± 0.14
GGUCAGCAAUAUUACGCGGG		-2.61 ± 0.28
GGUCAGCAAUAUUACGGCGC	-0.127 ± 0.12	-0.0173 ± 0.14
GGUCAGCAAUAUUACGGGAU	-1.12 ± 0.16	-2.85 ± 0.38
GGUCAGCAAUAUUACGGGGA	-1.25 ± 0.17	-1.87 ± 0.2
GGUCAGCAAUAUUACGUAAC	-1.32 ± 0.14	-0.628 ± 0.16
GGUCAGCAAUAUUACGUAAG	-1.87 ± 0.15	-0.22 ± 0.18
GGUCAGCAAUAUUACGUAUC	-0.892 ± 0.078	-0.138 ± 0.1
GGUCAGCAAUAUUACGUGCA	0.0844 ± 0.11	0.539 ± 0.15
GGUCAGCAAUAUUACGUGCC	-2.9 ± 0.23	-0.811 ± 0.26
GGUCAGCAAUAUUACGUGUU	-0.208 ± 0.047	0.537 ± 0.063
GGUCAGCAAUAUUACGUUAG	-2.17 ± 0.14	-1.68 ± 0.18
GGUCAGCAAUAUUACGUUGC	-1.98 ± 0.098	-0.999 ± 0.1
GGUGAGCAAUAUUACGAACC		-2.72 ± 0.22
GGUGAGCAAUAUUACGCGCA	-0.814 ± 0.21	-0.146 ± 0.21
GGUGAGCAAUAUUACGGAGU	-3.25 ± 0.26	-1.9 ± 0.19
GGUGAGCAAUAUUACGGAUA	-2.24 ± 0.18	-1.88 ± 0.22
GGUGAGCAAUAUUACGGAUU	-0.567 ± 0.14	-1.26 ± 0.19
GGUGAGCAAUAUUACGGCAU	-1.66 ± 0.25	-1.05 ± 0.28
GGUGAGCAAUAUUACGGCCU	-2.79 ± 0.26	-2.96 ± 0.43

Sequence	self-splicing fitness (ln) (30 °C)	self-splicing fitness (ln) (37 °C)
GGUGAGCAAUAUUACGGGAU	-3.28 ± 0.41	-2.62 ± 0.34
GGUGAGCAAUAUUACGGUAA		-2.66 ± 0.4
GGUGAGCAAUAUUACGGUAG	-2.67 ± 0.22	-2.59 ± 0.33
GGUGAGCAAUAUUACGGUAU	-3.49 ± 0.23	-3 ± 0.4
GGUGAGCAAUAUUACGGUCU	-0.893 ± 0.14	-0.768 ± 0.2
GGUGAGCAAUAUUACGUAAG	-3.05 ± 0.45	-2.22 ± 0.28
GGUGAGCAAUAUUACGUAGC	-2.64 ± 0.3	-1.27 ± 0.29
GGUGAGCAAUAUUACGUCAC	-3.1 ± 0.34	
GGUGAGCAAUAUUACGUCUC	-1.28 ± 0.19	-1.61 ± 0.22
GGUGAGCAAUAUUACGUCUU	-0.609 ± 0.2	0.239 ± 0.25
GGUGAGCAAUAUUACGUGGA	-2.86 ± 0.36	-3.3 ± 0.28
GGUGAGCAAUAUUACGUUCG	-2.65 ± 0.37	-2.44 ± 0.32
GGUGAGCAAUAUUACGUUUU	-2.94 ± 0.26	-1.6 ± 0.23
GGUUAGCAAUAUUACGAAAU	-1.45 ± 0.11	-0.492 ± 0.14
GGUUAGCAAUAUUACGACAA	0.354 ± 0.25	0.974 ± 0.3
GGUUAGCAAUAUUACGACCG	-0.946 ± 0.25	1.43 ± 0.36
GGUUAGCAAUAUUACGCAGG	-3.31 ± 0.24	-2.05 ± 0.2
GGUUAGCAAUAUUACGCAUU	-0.941 ± 0.075	-0.185 ± 0.086
GGUUAGCAAUAUUACGCGAA	-0.818 ± 0.25	-0.0649 ± 0.35
GGUUAGCAAUAUUACGGAAC	-1.48 ± 0.3	-0.799 ± 0.46
GGUUAGCAAUAUUACGGAUA	-1.23 ± 0.14	0.704 ± 0.17
GGUUAGCAAUAUUACGGAUC	-1.53 ± 0.18	0.131 ± 0.28
GGUUAGCAAUAUUACGGCGG	-2.05 ± 0.15	-1.68 ± 0.16
GGUUAGCAAUAUUACGGGAC	-3 ± 0.3	-1.44 ± 0.21
GGUUAGCAAUAUUACGGGGG		-2.37 ± 0.44

Sequence	self-splicing fitness (ln) (30 °C)	self-splicing fitness (ln) (37 °C)
GGUUAGCAAUAUUACGGUCG	-0.323 ± 0.13	-0.0539 ± 0.18
GGUUAGCAAUAUUACGUAAU	-2.05 ± 0.22	-0.725 ± 0.21
GGUUAGCAAUAUUACGUCAU	-1.03 ± 0.21	0.277 ± 0.21
GGUUAGCAAUAUUACGUCCA	-1.17 ± 0.3	-0.199 ± 0.34
GGUUAGCAAUAUUACGUGAC	-2.98 ± 0.28	-2.33 ± 0.34
GGUUAGCAAUAUUACGUGCU	-2.76 ± 0.46	-2.35 ± 0.3
GGUUAGCAAUAUUACGUGUU	-1.43 ± 0.096	-0.323 ± 0.098
GUAAAGCAAUAUUACGACCA	-0.123 ± 0.093	0.27 ± 0.13
GUAAAGCAAUAUUACGACGG	-3.85 ± 0.29	-2.28 ± 0.23
GUAAAGCAAUAUUACGACUC	0.441 ± 0.1	1.06 ± 0.15
GUAAAGCAAUAUUACGAUCU	0.147 ± 0.057	0.161 ± 0.069
GUAAAGCAAUAUUACGAUUA	0.307 ± 0.087	0.518 ± 0.1
GUAAAGCAAUAUUACGCCUA	-0.413 ± 0.14	0.493 ± 0.19
GUAAAGCAAUAUUACGCGCA	0.459 ± 0.16	-0.0064 ± 0.17
GUAAAGCAAUAUUACGCGCG	-0.817 ± 0.14	-0.615 ± 0.24
GUAAAGCAAUAUUACGCGUU	-1.65 ± 0.088	-0.906 ± 0.099
GUAAAGCAAUAUUACGGCGC	0.572 ± 0.13	-0.000459 ± 0.14
GUAAAGCAAUAUUACGGCUA	0.4 ± 0.052	0.518 ± 0.075
GUAAAGCAAUAUUACGGGUC	-1.78 ± 0.1	-2.99 ± 0.12
GUAAAGCAAUAUUACGUAUU	-1.87 ± 0.076	-1.69 ± 0.1
GUAAAGCAAUAUUACGUCUG	-1.56 ± 0.11	0.0989 ± 0.11
GUAAAGCAAUAUUACGUCUU	-0.455 ± 0.1	0.291 ± 0.12
